Measurements taken from publication PMC4318798 (Nature structural & molecular biology, 2015).
Numbering of substitutions follows the chain as printed. In names and notes the source's numbering stands. Where two headings read alike, the source gives them in different places.

Assays:
[1] = target: the molecule itself; assay: SEC-MALS
[2] = target: the molecule itself; assay: SEC-MALS; remark: listed apart in the source
[3] = target: the molecule itself; assay: crystal structure
[4] = target: T1, Ctp1 1-150 (Schizosaccharomyces pombe, UniProt O74986 1-150); assay: EMSA
T1 sequence: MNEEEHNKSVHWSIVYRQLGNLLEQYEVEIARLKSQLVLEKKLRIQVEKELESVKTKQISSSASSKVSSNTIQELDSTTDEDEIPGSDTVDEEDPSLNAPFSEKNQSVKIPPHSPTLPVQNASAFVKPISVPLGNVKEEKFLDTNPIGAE

[5] = target: T2, Ctp1 151-294 (Schizosaccharomyces pombe, UniProt O74986 151-294); assay: EMSA
T2 sequence: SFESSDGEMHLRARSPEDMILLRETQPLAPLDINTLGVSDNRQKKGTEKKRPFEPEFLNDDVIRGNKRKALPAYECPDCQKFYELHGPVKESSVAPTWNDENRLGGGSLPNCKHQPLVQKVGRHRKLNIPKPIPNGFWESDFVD

[6] = target: T3, Ctp1 61-294 (Schizosaccharomyces pombe, UniProt O74986 61-294); assay: EMSA
T3 sequence: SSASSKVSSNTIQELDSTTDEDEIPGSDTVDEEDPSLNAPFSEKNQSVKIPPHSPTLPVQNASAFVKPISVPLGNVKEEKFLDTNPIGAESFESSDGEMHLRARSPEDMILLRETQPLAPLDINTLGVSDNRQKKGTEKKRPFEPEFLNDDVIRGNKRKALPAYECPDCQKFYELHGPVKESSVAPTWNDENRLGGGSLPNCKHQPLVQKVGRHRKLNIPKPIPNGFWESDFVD

[7] = target: T4, Ctp1 WT (Schizosaccharomyces pombe, UniProt O74986 1-294); assay: EMSA
T4 sequence: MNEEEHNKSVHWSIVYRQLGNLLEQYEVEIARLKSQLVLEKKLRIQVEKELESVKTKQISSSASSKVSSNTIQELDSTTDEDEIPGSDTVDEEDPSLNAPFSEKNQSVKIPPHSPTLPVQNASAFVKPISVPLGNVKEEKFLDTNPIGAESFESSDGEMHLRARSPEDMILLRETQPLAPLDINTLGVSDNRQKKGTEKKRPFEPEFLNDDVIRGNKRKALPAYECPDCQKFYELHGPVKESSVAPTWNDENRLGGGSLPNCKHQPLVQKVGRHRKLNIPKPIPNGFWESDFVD

[8] = target: T5, Ctp1 K219A (Schizosaccharomyces pombe, UniProt O74986 1-294, K219A); assay: EMSA
T5 sequence: T4 sequence with K219A

[9] = target: T6, Ctp1 K231A (Schizosaccharomyces pombe, UniProt O74986 1-294, K231A); assay: EMSA
T6 sequence: T4 sequence with K231A

[10] = target: T7, Ctp1 K276A (Schizosaccharomyces pombe, UniProt O74986 1-294, K276A); assay: EMSA
T7 sequence: T4 sequence with K276A

[11] = target: T8, Ctp1 R275A (Schizosaccharomyces pombe, UniProt O74986 1-294, R275A); assay: EMSA
T8 sequence: T4 sequence with R275A

[12] = target: T9, Ctp1 R273A (Schizosaccharomyces pombe, UniProt O74986 1-294, R273A); assay: EMSA
T9 sequence: T4 sequence with R273A

[13] = target: the molecule itself; assay: SEC-MALS; remark: listed apart in the source

B1: full-length S. pombe Ctp1 (natural protein, UniProt O74986 1-294, looked up)
chain: T4 sequence
B1 was tested, and the “stoichiometry N” value [1] was 4.

B2: Ctp1 R32A K41A (natural protein, S. pombe, UniProt O74986 1-294, looked up)
chain: T4 sequence with R32A, K41A
B2: binds [2].

B3: Ctp1_(5–60)-L51M (domain or fragment, S. pombe, UniProt O74986 5-60, looked up)
chain: EHNKSVHWSIVYRQLGNLLEQYEVEIARLKSQLVLEKKLRIQVEKEMESVKTKQIS
B3: binds [3].

B4: 39 bp dsDNA (39bpf/39bpr) (dsDNA)
DNA 1: CAGAGTCATAATATGCAGGTGCAGGTTATTCATGCTCGG
DNA 2: CCGAGCATGAATAACCTGCACCTGCATATTATGACTCTG
B4: no binding [4]; no binding [5].

B5: fork (ssDNA/splay) (mixed)
DNA 1: GCAGGAGGTGGCGTCGGGTGGACGGGTGGATTGAAATTTAGGCTGGCACGGTCT
DNA 2: AGACCGTGCCAGCCTAAATTTCAATCCAAGGTCTCGACTAACTCTAGTCGTTGT
With B5 the Kd [6] was 1000 nM.

B6: ssDNA 54 nt (ssDNA)
DNA: B5 DNA 1
B6: binds [7].

B7: 54 bp dsDNA (dsDNA)
DNA 1: B5 DNA 1
DNA 2: AGACCGTGCCAGCCTAAATTTCAATCCACCCGTCCACCCGACGCCACCTCCTGC
B7: no binding [8]; no binding [9]; no binding [10]. B7: no binding [11]; no binding [12].

For VYRQLGNLLEQYEVEIARLKSQLVLEKKLRIQVEKELESVKTKQIS (domain or fragment, S. pombe, UniProt O74986 15-60, looked up) [MBP-Ctp1_(15–60)], the “stoichiometry N” value [13] was 2.

B8: Ctp1_(1–60) (domain or fragment, S. pombe, UniProt O74986 1-60, looked up)
chain: MNEEEHNKSVHWSIVYRQLGNLLEQYEVEIARLKSQLVLEKKLRIQVEKELESVKTKQIS
For B8, the “stoichiometry N” value [1] was 4.

B9: MBP-Ctp1_(1–60) (domain or fragment, S. pombe, UniProt O74986 1-60, looked up)
chain: B8 chain
For B9, the “stoichiometry N” value [13] was 4.
